# Results from the DeepSol protein solubility set.
# Experiment: soluble on expression in E. coli; label from the status in PepcDB or PDB records
row,Sequence,soluble on expression in E. coli
1,MSGNGVKKVAEVAAKAGKAIDWEGMAKMLVSDEARKEFNTLRRTFEDVNHQLQTKFSQEPQPIDWEYYRKGIGSKVVDMYKEAYERTSCFVNPNVNAFCGTVICSEMHVLLCDLVNRSEDTKHEINAGIEIPKYVDTVTPQYKPKFDALLVELKEAEKESLKESERIEKELAELQEMKKNISTMTADEYFAKHPEVKQKFDDEIRNDNWGY,soluble
2,MSGSIARCETWPFPLHFSLLLLLLDFPACGNKGGLVIFIAHKFSMLRLSMHRASLPLWVGARLLSSTAVLRLEQSAEERTREEELRQRVQQKYRGMQIPEMTHHEYGHFSTTGISASAAHQAARSAGVEGYPGFGGGAFQNRGRVDWLLLLTGCTLVYLSFKILFRQFTRGVNGLELPLWTASIELQAKHILFAVQFQQSEQDQIKKDFEAVRQTNPFVDFFEWVRSRRPEFCCGRKYGADYVMHTLVSCLRSGDGTQLATLARTLQQSMTRKNGDSLQRVDDFVEQLQSAGYLFQGIRGVGSSGVHTPEHSPQPIYTPLREVSQCGVQESDLINALDVKNGEAHSSTPFREAK,soluble
3,MSGSLEIPGLDDGLLPVETGYGLFQGTAKKRVVICNDNDKFRHSGPLPRALCGSFAAIGLLPLPVVETRPAPPPKVAPITPALQGKACGQAVFEGLRNKNAVETVDNLPALRQTARTGKRWKALESLMQETPAIIYKIVPETLWTAARAEGMFEGAAIDLTDGFIHFSTAKQVAETAARHFSGQVDLLLIAVDGAALGDKLVYEPSRGGDLFPHLYAPLPFSAVLWETPLSLDHDGQHQFPEILLEHHHHHH,not soluble
4,MSGTNRVAANLNMLFTNLPLLQRYGAAASAGFKLVEVSIPYTEPAEKLREAADEYHLKHTLINAPPGNWDDGFRGLASLKSAKKEFRKSLDTAIEYAKALGCCRVHVMAGIPKSDDDLENAHQTYSENVRFAAEKFKEHKLICLIEPINKYTIPGYHLNNYEDAMDVIQMDQSNNLKIQYDTFHAQQINGQIGAIMRKLKDYIGYIQVAQVPNRGACDTRGEIDYHFIFDEIRSINPSWVIGAEYLDAKPSFNWIENMSLSF,not soluble
5,MSGVASGKTAIKSTAKVLSFVVQKHWATRLHYDFRLELEGTMKSWAVPKGPSFDPNDKRMAVHVEDHPISYNSFEGEIPSGQYGAGKVIIWDKGTWIPLEDPHKGYRDGKLKFELRGLKLKGHWALVRMRKEENKKQEPWLLIKEKDEYVRSSREYSVVDEMPDSVAELEHHHHHH,not soluble
6,MSGVLNTVDQRTNLVGENRLELLLFTLNSRQLFAINVFKVKEVIKLPPLTKLPGSHYNIRGVASLRGEAVPVIDLRCSIGFPPLRGEAEEENLIVTEYNRSVQGFLVGPVRNIINTAWTEIQPPPSTSGRSNYLTAITQVKDGDTSQIVEIIDVEKVLAEIVHYDVTISEDILDHDLSQSMVGRN,not soluble
7,MSHFTQLKTKLTNRDCLVQALEDLKLQPHVFEQPQPLAGYYMDSQGYSAEIIIFGRTIKARADIGFRWNQSSGVYEVIHDEYETSPRLGEDFFSHKLMQTYGRRMVLAKTEELREKFGECTISEETKGQVQTLRLTFAGHQEVKQYARRLEHHHHHH,not soluble
8,MSHGSPAPSASVSSDGEEPEIDVMPSSDEESEPIYIPKEKEPVVIRGVGNITVFGMNSRFNTEYPPELTGYIAPEELSATLSRVNSVLKRHVQTSSRWLLCGLAFCCCSIGCSMWPVLCLNRRTVLALEKCLDHENVSLYHKLGLHWSLARRPTEPSDRLTEYVLELKTLPKPALNLPD,not soluble
9,MSICLIAEEGADSGALSSLAERWGLVSDPNAVMALVLTTERLELRKQDEPKLGAIFVDFVAGPMAHRRRFGGGRGEAVAKAVGIKKDYLPDVVDATAGLGRDAFVLAALGCHVRMVERNPVVAALLDDGLKRGYQDAEIGPWLRERLTLLHASSMTALRDITPPPDVVYLDPMFPHKQKSALVKKEMRVFQSLVGADDDADALLEPARALAKKRVVVKRPDYAPPLAGVPAQSMLETKSHRFDFYLPVLEHHHHHH,soluble
10,MSIEHHFLCPKKLLKLCNKKIDKDVIRNLQLLTEKFLSDIIHRSALLCKHKGKSTVDNTDIRFVIEKDFDYSFGTREIQGTTSLPTAEHLERMAEISRQNK,not soluble
11,MSIITRLFNNSDFEKLNQLCKLYDDLGYPTNENDLKKRLKKITNHDDYFLLLLIKENKIIGLSGMCKMMFYEKNAEYMRILAFVIHSEFRKKGYGKRLLADSEEFSKRLNCKAITLNSGNRNERLSAHKLYSDNGYVSNTSGFTKQL,soluble
12,MSIKVDMSLDCKGLACPMPIVKTKKAIEGLASGQVIEVKATDKGSTVDIKSWANKVGHQYIGTKHEGDILMHYVRKAHEHEVNEVVKYPHTITNTELEEILVSGEECTVLDVREAAEFAFGHIPSATSMPLGELESLVLDKTKQIYVVCRTGNRSDVACQMLKEKGYTNVKNVIPGMIEWQGNIENLEHHHHHH,soluble
13,MSILNDYKRKTEGSVFWAQRARSVMPDGVTADTRAFDPHGLFISDAQGVHKTDVDGNVYLDFFGGHGALVLGHGHPRVNAAIAEALSHGVQYAASHPLEVRWAERIVAAFPSIRKLRFTGSGTETTLLALRVARAFTGRRMILRFEGHYHGWHDFSASGYNSHFDGQPAPGVLPETTANTLLIRPDDIEGMREVFANHGSDIAAFIAEPVGSHFGVTPVSDSFLREGAELARQYGALFILDEVISGFRVGNHGMQALLDVQPDLTCLAKASAGGLPGGILGGREDVMGVLSRGSDRKVLHQGTFTGNPITAAAAIAAIDTILEDDVCAKINDLGQFAREAMNHLFARKGLNWLAYGRFSGFHLMPGLPPNTTDTGSITRAEVARPDVKMIAAMRMALILEGVDIGGRGSVFLSAQHEREHVEHLVTTFDRVLDRLADENLLSWQGTNLSGNQS,soluble
14,MSIRAEEISALIKQQIENYQSEIEVSDVGTVIQVGDGIARAHGLDNVMAGELVEFSNGVMGLAQNLEENNVGIIILGPYTEIREGDEVRRTGRIMQVPVGKELIGRVVNPLGQPVDGLGPINTTNTRPIESPAPGVMDRKSVHEPLQTGIKAIDALVPIGRGQRELIIGDRQTGKTAVALDTIINQKDEDMICIYVAIGQKESTVRNVVETLRKHGALEYTIVVTASASQPAPLLYLAPYAGVTMGEEFMYNGKHVLVVYDDLSKQAAAYRELSLLLRRPPGREAYPGDVFYLHSRLLERAAKLSDAKGGGSLTALPFIETQAGDVSAYIPTNVISITDGQIFLQSDLFFSGVRPAIDAGTSVSRVGGSAQIKAMSKVSGTLRLDLASYRELEAFAQFGSDLDKATQAKLNRGARTVEVLKQGLHKPLRVEKQVIILYALTRGFLDDIPVVDITRFEEEFHAWLDSNATDLLEEIRTTKKLADDDKFAAAINGFKKVFVASE,not soluble
15,MSITHQPANLTLAQIQQMIGGVMLLSQHSPLHRRYVVAEWLQRILPAFELNQFCYYEDEHGRPIAFCNWAFVSEQIRDELLSGVREISPSDWRSGQQIYIPEMIAPFGHGREVVNDLRRRVFLPWQGQKVCTVRGKVDAQNDRCIRKVQWFSI,not soluble
16,MSITSTDICQAADALKGFVGFNRKTGRYIVRFSEDSFGMDVADDSITPTSEFVWSSVRDDVMRLGREQLQILLEQNINERLNIGEPLLVYLRRQDLPEITAQRQLR,not soluble
17,MSIYEYFVKLHRYLLWQTKKIRALERRLHALEARLREMEAQPRTSIERIEYKFDQLKVETLEGTLNIGIAPPGAGGTIEDFAVEPVKTVIPKPEPVLMRPIQEKVAAYLNGEASETLKRLEQQYGRRLDDTYRQFILQDIARQTDERIRFYLQEKANHGYVPSGDRDEAVENEIFQKVKADIEQSLDAFLKHLPSKEGST,not soluble
18,MSIYSKILVVADINNDEQPALARAVQLAQKSVSRSRITFFLSIYDFSYDMTSMLSVDERDAMRRGVIHQREQWMRKIAQPYLNDSFDFDVCVVWHNRPYEAIIAEVYAGGHDLLIKGTRKHDVLESVIFTPTDWHLLRKCPTPVLLIKNSDWPEQANILASVHVGSENPTHIDLNDAMVERLKEMSNRLDAEPYLVNAYPVTPANITIELPEFDPTTYTDAVRGHHLTAMKALRQKHGIDEEQT,not soluble
19,MSKAGASLATCYGPVSADVMAKAENIRLLILDVDGVLSDGLIYMGNNGEELKAFNVRDGYGIRCALTSDIEVAIITGRKAKLVEDRCATLGITHLYQGQSNKLIAFSDLLEKLAIAPENVAYVGDDLIDWPVMEKVGLSVAVADAHPLLIPRADYVTRIAGGRGAVREVCDLLLLAQGKLDEAKGQSI,soluble
20,MSKEPGEDVDLFDMEQFQSSFKRILQRALKNVTVSFRVYEKDSVWIRVAWGTQYSQPNQYKPTFVVYYPQTPYAFISSCHLKNTVPLLHQALKVASKHHQIVHLDLRSRHLDSLKAIVFREYNQTCENYSSTTSLQEASLSMCLDSKITHENTEEKVRVHRVTQETFGTYPQPQLEFAQYKLETKFKSNIGGGLLADRKEPFRCLVKFSSPHLLEALKSLAPAGIADAPLSPLLTCIPSKKMNYFKIRDK,not soluble
21,MSKFNLGIAKAGKTVNNEGAIAYSMSDKEKLVTQVLTSFFNENKFYGDNSQDILNTVRNVIKNEAAFVANLCIFARKEMHLRTISHVLVSELAKSTEGKEYVRRTLNEIIERPDDMTEVLAYYINTYGKPIPNSIKKGLADSFGKFDEYQLAKYNRKNAVKLKDILCLVHPKAKDEIQNDLWKRLLEDRLETPVTWETELSLKGNTKEVWERLIDENRLGYMAMMRNLRNIIKSGASNMDKVYEYLTDEERVLKNKQLPFRYYSAYKVLRNEGIGTSKIYDALEIAIKISTKNIDRLPGKTLIAADVSGSMNFPVSAKSDLTCAEVAVLMLSIANYICEESITMTFDDNLYACNLSTQNGIIANANSIKVNGGGTDITLPLRYLLDKRIFVDRIILLSDNEINAVYTYDTGRDKPKTCQALVERYKKWINPNVWVHAIDMQGYGTQQFKGQNVNIIAGWSERVFDFISSVEQGIDTLIGKISGYYFK,soluble
22,MSKIAKTAIISPKAEINKGVEIGEFCVIGDGVKLDEGVKLHNNVTLQGHTFVGKNTEIFPFAVLGTQPQDLKYKGEYSELIIGEDNLIREFCMINPGTEGGIKKTLIGDKNLLMAYVHVAHDCVIGSHCILANGVTLAGHIEIGDYVNIGGLTAIHQFVRIAKGCMIAGKSALGKDVPPYCTVEGNRAFIRGLNRHRMRQLLESKDIDFIYALYKRLFRPIPSLRESAKLELEEHANNPFVKEICSFILESSRGVAYKSSEYSSEEKQEE,soluble
23,MSKLASPQSVRALLERHGLFADKRFGQNFLVSEAHLRRIVEAARPFTGPVFEVGPGLGALTRALLEAGAEVTAIEKDLRLRPVLEETLSGLPVRLVFQDALLYPWEEVPQGSLLVANLPYHIATPLVTRLLKTGRFARLVFLVQKEVAERMTARPKTPAYGVLTLRVAHHAVAERLFDLPPGAFFPPPKVWSSLVRLTPTGALDDPGLFRLVEAAFGKRRKTLLNALAAAGYPKARVEEALRALGLPPRVRAEELDLEAFRRLREGLEGAV,soluble
24,MSKLFPGEVFANTADFDTGIRQLLPRYDEMLEVICRCLPLTSRRILDLGCGTGELSLKILQRCPDAQVIALDYSPRMLKFAQNKIVASGYKERWTGLQADFGDWAINPETLNIGNEFDACVSSLAIHHLYDEMKLQLFQRIAASLTPNGCFWNADPILPESPTLAEIYQAAREEWVSEQGSNFTEVRAKVGDSSPQGYSNPDQLATLDTHLQMLTKSGFTTVAVPWKYYGLAVFGGWVKLEHHHHHH,soluble
